Target: C-C chemokine receptor type 5 (CCR5) (Homo sapiens) (UniProt P51681)
Assay: flow
Settings: 2'-F pyrimidines (2'-F-C, 2'-F-U), negative control

Chain of C-C chemokine receptor type 5 (CCR5) (Homo sapiens) (P51681 whole entry): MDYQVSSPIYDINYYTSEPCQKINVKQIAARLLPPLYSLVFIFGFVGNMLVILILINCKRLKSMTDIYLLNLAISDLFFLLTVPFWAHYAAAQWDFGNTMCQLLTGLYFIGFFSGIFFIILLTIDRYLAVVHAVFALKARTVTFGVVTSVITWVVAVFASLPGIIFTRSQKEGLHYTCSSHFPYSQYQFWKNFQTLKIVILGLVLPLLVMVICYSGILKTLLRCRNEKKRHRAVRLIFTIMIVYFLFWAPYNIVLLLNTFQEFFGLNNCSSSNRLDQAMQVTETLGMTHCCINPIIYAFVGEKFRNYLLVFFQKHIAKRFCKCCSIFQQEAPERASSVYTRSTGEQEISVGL

Sequence: GGGAGGACGAUGCGGNNNNNNNNNNNNNNNNNNNNCAGACGACUCGCCCGA [0-RNA pool (starting library)]
- binding signal (% Cy3-positive cells) (untreated 0.076%): 0.808
- binding signal (% Cy3-positive cells) (untreated 0.191%): 7.63

Reference: patent US9605266
